Sequences and labels used below:
B3: Recombinant human FHR-2 (rFHR-2), C-terminal 6×His (natural protein, UniProt P36980 19-270, looked up)
chain: EAMFCDFPKINHGILYDEEKYKPFSQVPTGEVFYYSCEYNFVSPSKSFWTRITCAEEGWSPTPKCLRLCFFPFVENGHSESSGQTHLEGDTVQIICNTGYRLQNNENNISCVERGWSTPPKCRSTISAEKCGPPPPIDNGDITSFLLSVYAPGSSVEYQCQNLYQLEGNNQITCRNGQWSEPPKCLDPCVISQEIMEKYNIKLKWTNQQKLYSRTGDIVEFVCKSGYHPTKSHSFRAMCQNGKLVYPSCEEK
modifications: DyLight 488 or DyLight 594, 3 to 4 labels per monomer (the labelled copies of the FRET assays; unlabelled where added in excess and in the ELISA)
notes: Complement factor H-related protein 2 (FHR-2), human; Labelled and unlabelled copies of the same construct are kept as one molecule; also called rFHR-2^488; rFHR-2^594; not shown: 6×His, C-terminal, kept

The target of data set [1] is B3. Nature of the data set: FRET or BRET; monomer exchange: pre-equilibrated 488- and 594-labelled protein, then a >5 times molar excess of unlabelled rFHR added; loss of FRET signal followed; 37°C, PBS with 1 mg/mL IVIg; first-order exponential fit. Conditions: both partners purified.
Data set [2] concerns the molecule itself. Kind of data set: FRET or BRET; monomer exchange: equimolar DyLight 488- and 594-labelled protein mixed and followed in time; 37°C, 200 ng/mL in degassed PBS with 1 mg/mL IVIg; first-order exponential fit.
Data set [3] concerns the molecule itself. Kind of data set: FRET or BRET; monomer exchange: pre-equilibrated 488- and 594-labelled protein, then a >5 times molar excess of unlabelled rFHR added; loss of FRET signal followed; 37°C, PBS with 1 mg/mL IVIg; first-order exponential fit.

B1: Recombinant human FHR-1 (rFHR-1), CFHR1*A allotype, C-terminal 6×His (natural protein, UniProt Q03591 19-330, looked up)
chain: EATFCDFPKINHGILYDEEKYKPFSQVPTGEVFYYSCEYNFVSPSKSFWTRITCTEEGWSPTPKCLRLCFFPFVENGHSESSGQTHLEGDTVQIICNTGYRLQNNENNISCVERGWSTPPKCRSTDTSCVNPPTVQNAHILSRQMSKYPSGERVRYECRSPYEMFGDEEVMCLNGNWTEPPQCKDSTGKCGPPPPIDNGDITSFPLSVYAPASSVEYQCQNLYQLEGNKRITCRNGQWSEPPKCLHPCVISREIMENYNIALRWTAKQKLYLRTGESAEFVCKRGYRLSSRSHTLRTTCWDGKLEYPTCAKR
notes: also called native rFHR-1; unlabeled rFHR-1; not shown: 6×His, C-terminal, kept
In the case of B1, the “observed rate constant k of monomer exchange” value in data set [1] is 0.00053 s⁻¹.

B2: Recombinant human FHR-5 (rFHR-5), C-terminal 6×His (natural protein, UniProt Q9BXR6 19-569, looked up)
chain: EGTLCDFPKIHHGFLYDEEDYNPFSQVPTGEVFYYSCEYNFVSPSKSFWTRITCTEEGWSPTPKCLRMCSFPFVKNGHSESSGLIHLEGDTVQIICNTGYSLQNNEKNISCVERGWSTPPICSFTKGECHVPILEANVDAQPKKESYKVGDVLKFSCRKNLIRVGSDSVQCYQFGWSPNFPTCKGQVRSCGPPPQLSNGEVKEIRKEEYGHNEVVEYDCNPNFIINGPKKIQCVDGEWTTLPTCVEQVKTCGYIPELEYGYVQPSVPPYQHGVSVEVNCRNEYAMIGNNMITCINGIWTELPMCVATHQLKRCKIAGVNIKTLLKLSGKEFNHNSRIRYRCSDIFRYRHSVCINGKWNPEVDCTEKREQFCPPPPQIPNAQNMTTTVNYQDGEKVAVLCKENYLLPEAKEIVCKDGRWQSLPRCVESTAYCGPPPSINNGDTTSFPLSVYPPGSTVTYRCQSFYKLQGSVTVTCRNKQWSEPPRCLDPCVVSEENMNKNNIQLKWRNDGKLYAKTGDAVEFQCKFPHKAMISSPPFRAICQEGKFEYPICE
modifications: DyLight 488 or DyLight 594, 3 to 4 labels per monomer (the labelled copies of the FRET assays; unlabelled where added in excess)
notes: Complement factor H-related protein 5 (FHR-5), human; Labelled and unlabelled copies of the same construct are kept as one molecule; also called rFHR-5^488; rFHR-5^594; not shown: 6×His, C-terminal, kept
The molecule B2 returned a dissociation half-life in data set [2] below 30 min. Further, the “observed rate constant k of monomer exchange” value in data set [3] came out at 0.0012 s⁻¹.

Consider B3, for which the dissociation half-life in data set [2] is below 30 min. Also, in data set [3], the “observed rate constant k of monomer exchange” value was determined as 0.0004 s⁻¹.

The values are drawn from PMC5651247, “Factor H-Related (FHR)-1 and FHR-2 Form Homo- and Heterodimers, while FHR-5 Circulates Only As Homodimer in Human Plasma” (Frontiers in Immunology, 2017).
